Test results reported in US6528098B2, “Preparation of a therapeutic composition” (Advanced Viral Research Corp., priority 1996, dated 2003).
No end group written: not given here.

Biological target: T1, chymotrypsin (Bos taurus, UniProt P00766)
T1 construct: purchased Boehringer Mannheim, USA
Experiment: Treatment of Product R with chymotrypsin, SDS-PAGE on a 16% gel
Format: physicochemical
Design: key to Sensitivity of the Peptide Components of Product R (SDS-PAGE): Chymotrypsin (250 μg/ml): “−” represents no substantial alteration of the stainable bands; “+” represents substantial alteration of the stainable bands
Conditions: 250 μg/ml chymotrypsin, 25° C., 19 hours
Description: The biochemical properties of the peptides: Some biochemical properties of the silverstainable peptide components of Product R are analyzed using various catabolic enzymes, as described below:
The treatment with chymotrypsin (Boehringer Mannheim, USA):Chymotrypsin is a serine protease that specifically hydrolyses the peptide bonds of tyrosine, phenylalanine and tryptophan at C-terminals. It also cleaves peptide bonds of leucine, methionine, alanine, aspartic acid and glutamic acid at C-terminals at relatively lower rates. A Product R sample is incubated in a reaction buffer containing 100 mM Tris-HCl, pH 7.6, 10 mM CaCl2 and 250 μg/ml of sequencing grade chymotrypsin at 25° C. for 19 hours and then subject to SDS-PAGE on a 16% gel.
A summary of the above described treatments by catabolic enzymes is provided in the following TABLE III, and the results of the treatment are shown in FIG. 5, wherein “−” represents no substantial alteration of the stainable bands and “+” represents substantial alteration of the stainable bands.

Sequence | Sensitivity of the Peptide Components of Product R (SDS-PAGE): Chymotrypsin (250 μg/ml) | change of band intensity after chymotrypsin treatment
KVLPVPQKAVPYPQRDMPIQAFLLYQEPVLG [Peptide-A, 31-amino-acid long peptide derived from bovine beta-casein, constituent of Product R] | + | significantly reduces the intensity
GEIPDAGGRIVDYYVGFSDSV (not fully specified (residue 18)) [Peptide-B, 21-amino acid peptide linked at serine 18 through a diphosphodiester group to the 3′-end of an adenylyl (3′-5′) adenosine moiety] | − | no apparent effect
